{"source": "paper doi:10.1101/2021.06.23.449282", "biological_target": "directed activation strategy TMPRSS2 (activated TMPRSS2 ectodomain, residues 109-492, DDDDK255 activation motif) (human) (UniProt O15393)", "test": "enzyme inhibition assay", "data": [{"substance": "sunflower trypsin inhibitor-1 (from UniProt Q4GWU5 40-56) (peptide)", "values": [{"measurement": "Ki", "value": 400, "unit": "nM"}]}]}
